Blank lines part the entries; values can stand above or below the molecule they belong to.
Assays:
[1] = target: Smc-HaloTag with J-Cys (S152C) (Bacillus subtilis) (UniProt P51834); assay: cross-linking
[2] = target: T1, SmcH-CC100 (Smc hinge with adjacent coiled coil) (Bacillus subtilis, UniProt P51834 400-776); assay: fluorescence anisotropy
T1 sequence: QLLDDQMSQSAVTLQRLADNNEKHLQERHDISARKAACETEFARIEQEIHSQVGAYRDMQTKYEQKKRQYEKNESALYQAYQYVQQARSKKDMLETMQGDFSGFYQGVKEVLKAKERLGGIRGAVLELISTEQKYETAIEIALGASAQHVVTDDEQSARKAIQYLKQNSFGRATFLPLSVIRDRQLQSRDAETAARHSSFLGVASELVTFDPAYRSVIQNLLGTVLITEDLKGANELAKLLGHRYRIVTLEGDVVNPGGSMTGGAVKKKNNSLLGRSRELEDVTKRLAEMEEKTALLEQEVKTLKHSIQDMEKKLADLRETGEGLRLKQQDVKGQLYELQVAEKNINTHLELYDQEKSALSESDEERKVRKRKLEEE

SmcHd(EQ,3A-hd);ScpA-N = target: T2, SmcHd(EQ,3A-hd);ScpA-N (Bacillus subtilis;Bacillus subtilis, UniProt P51834;P51834;P35154 1-219;983-1186;1-86, K60A;R120A;K122A;EQ|); assay: fluorescence anisotropy
T2 sequence 1: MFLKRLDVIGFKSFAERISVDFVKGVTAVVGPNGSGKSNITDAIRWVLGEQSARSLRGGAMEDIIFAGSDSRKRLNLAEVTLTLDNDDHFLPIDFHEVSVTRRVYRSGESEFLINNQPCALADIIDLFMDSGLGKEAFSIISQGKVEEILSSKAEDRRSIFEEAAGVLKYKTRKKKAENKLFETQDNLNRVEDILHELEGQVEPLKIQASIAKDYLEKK
T2 sequence 2: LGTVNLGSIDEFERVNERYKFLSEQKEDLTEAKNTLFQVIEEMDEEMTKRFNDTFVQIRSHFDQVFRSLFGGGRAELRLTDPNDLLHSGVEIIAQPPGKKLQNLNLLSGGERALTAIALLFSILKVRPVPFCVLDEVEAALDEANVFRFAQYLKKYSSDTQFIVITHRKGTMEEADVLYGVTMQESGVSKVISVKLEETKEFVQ
T2 sequence 3: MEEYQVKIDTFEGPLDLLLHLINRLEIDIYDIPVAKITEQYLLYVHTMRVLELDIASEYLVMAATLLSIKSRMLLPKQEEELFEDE

SmcHd(EQ);ScpA-N = target: T3, SmcHd(EQ);ScpA-N (Bacillus subtilis;Bacillus subtilis, UniProt P51834;P35154 1-219+=GPG+983-1186;1-86, E1118Q;internal_change|); assay: fluorescence anisotropy
T3 sequence 1: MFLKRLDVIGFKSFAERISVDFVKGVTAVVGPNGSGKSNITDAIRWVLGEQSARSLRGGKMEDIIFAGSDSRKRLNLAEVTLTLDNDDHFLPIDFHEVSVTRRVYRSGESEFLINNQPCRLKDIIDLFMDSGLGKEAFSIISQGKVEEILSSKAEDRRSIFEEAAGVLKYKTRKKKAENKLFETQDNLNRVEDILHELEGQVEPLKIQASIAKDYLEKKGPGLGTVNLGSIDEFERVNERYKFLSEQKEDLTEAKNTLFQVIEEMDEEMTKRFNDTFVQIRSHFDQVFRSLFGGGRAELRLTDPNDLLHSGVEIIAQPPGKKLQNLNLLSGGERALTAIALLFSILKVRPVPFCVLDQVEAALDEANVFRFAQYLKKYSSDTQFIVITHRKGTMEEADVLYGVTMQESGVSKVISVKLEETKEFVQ
T3 sequence 2: T2 sequence 3

fraction of Smc-HT in the cross-linked species [1]: 66%
Molecule: Smc-HaloTag with J-Cys (S152C) (from UniProt P51834 1-1186) (natural protein)

B1: 40 bp random sequence dsDNA (dsDNA)
DNA 1: TTAGTTGTTCGTAGTGCTCGTCTGGCTCTGGATTACCCGC
DNA 2: GCGGGTAATCCAGAGCCAGACGAGCACTACGAACAACTAA
binding result [2]: binds
binding result (SmcHd(EQ,3A-hd);ScpA-N): no binding
binding result (SmcHd(EQ);ScpA-N): binds
